Measurements: patent US8703915B2, “Mutant proteins and methods for producing them” (Heptares Therapeutics Limited, priority 2009, dated 2014)
Numbering of substitutions follows the chain as printed. Numbers in names are those of the source.

B1: P285A: adenosine A2A receptor NPFIY motif mutant P285A (protein, UniProt P29274 1-412, looked up, variant P285A)
Adenosine receptor A2a: MPIMGSSVYITVELAIAVLAILGNVLVCWAVWLNSNLQNVTNYFVVSLAAADIAVGVLAIPFAITISTGFCAACHGCLFIACFVLVLTQSSIFSLLAIAIDRYIAIRIPLRYNGLVTGTRAKGIIAICWVLSFAIGLTPMLGWNNCGQPKEGKNHSQGCGEGQVACLFEDVVPMNYMVYFNFFACVLVPLLLMLGVYLRIFLAARRQLKQMESQPLPGERARSTLQKEVHAAKSLAIIVGLFALCWLPLHIINCFTFFCPDCSHAPLWLMYLAIVLSHTNSVVNAFIYAYRIREFRQTFRKIIRSHVLRQQEPFKAAGTSARVLAAHGSDGEQVSLRLNGHPPGVWANGSAPHPERRPNGYALGLVSGGSAQESQGNTGLPDVELLSHELKGVCPEPPGLDDPLAQDGAGVS
B2: 287A: adenosine A2A receptor NPFIY motif mutant, residue 287 to alanine (protein, UniProt P29274 1-412, looked up, variant I287A)
Adenosine receptor A2a: B1 Adenosine receptor A2a with A285P, I287A
B3: Y288A: adenosine A2A receptor NPFIY motif mutant Y288A (protein, UniProt P29274 1-412, looked up, variant Y288A)
Adenosine receptor A2a: B1 Adenosine receptor A2a with A285P, Y288A
B4: F286A: adenosine A2A receptor NPFIY motif mutant F286A (protein, UniProt P29274 1-412, looked up, variant F286A)
Adenosine receptor A2a: B1 Adenosine receptor A2a with A285P, F286A
B5: 1363: 5HT2C receptor mutant, residue 7.48 to alanine (protein, listed as Homo sapiens)
chain: MVNLRNAVHSFLVHLIGLLVWQCDISVSPVAAIVTDIFNTSDGGRFKFPDGVQNWPALSIVIIIIMTIGGNILVIMAVSMEKKLHNATNYFLMSLAIADMLVGLLVMPLSLLAILYDYVWPLPRYLCPVWISLDVLFSTASIMHLCAISLDRYVAIRNPIEHSRFNSRTKAIMKIAIVWAISIGVSVPIPVIGLRDEEKVFVNNTTCVLNDPNFVLIGSFVAFFIPLTIMVITYCLTIYVLRRQALMLLHGHTEEPPGLSLDFLKCCKRNTAEEENSANPNQDQNARRRKKKERRPRGTMQAINNERKASKVLGIVFFVFLIMWCPFFITNILSVLCEKSCNQKLMEKLLNVFVWIGYVCSGANPLVYTLFNKIYRRAFSNYLRCNYKVEKKPPVRQIPRVAATALSGRELNVNIYRHTNEPVIEKASDNEPGIEMQVENLELPVNPSSVVSERISSV
B6: M93A: 5HT2C receptor mutant, M93 to alanine (protein, UniProt P28335 33-458, looked up, variant M93A)
5-hydroxytryptamine receptor …: IVTDIFNTSDGGRFKFPDGVQNWPALSIVIIIIMTIGGNILVIMAVSMEKKLHNATNYFLASLAIADMLVGLLVMPLSLLAILYDYVWPLPRYLCPVWISLDVLFSTASIMHLCAISLDRYVAIRNPIEHSRFNSRTKAIMKIAIVWAISIGVSVPIPVIGLRDEEKVFVNNTTCVLNDPNFVLIGSFVAFFIPLTIMVITYCLTIYVLRRQALMLLHGHTEEPPGLSLDFLKCCKRNTAEEENSANPNQDQNARRRKKKERRPRGTMQAINNERKASKVLGIVFFVFLIMWCPFFITNILSVLCEKSCNQKLMEKLLNVFVWIGYVCSGINPLVYTLFNKIYRRAFSNYLRCNYKVEKKPPVRQIPRVAATALSGRELNVNIYRHTNEPVIEKASDNEPGIEMQVENLELPVNPSSVVSERISSV
B7: V367A: 5HT2C receptor NPLVY motif mutant V367A (protein, UniProt P28335 33-458, looked up, variant V367A)
5-hydroxytryptamine receptor …: B6 5-hydroxytryptamine receptor … with A61M, V335A
B8: P365A: 5HT2C receptor NPLVY motif mutant P365A (protein, UniProt P28335 33-458, looked up, variant P365A)
5-hydroxytryptamine receptor …: B6 5-hydroxytryptamine receptor … with A61M, P333A
B9: N364A: 5HT2C receptor NPLVY motif mutant N364A (protein, UniProt P28335 33-458, looked up, variant N364A)
5-hydroxytryptamine receptor …: B6 5-hydroxytryptamine receptor … with A61M, N332A
B10: Y368A: 5HT2C receptor NPLVY motif mutant Y368A (protein, UniProt P28335 33-458, looked up, variant Y368A)
5-hydroxytryptamine receptor …: B6 5-hydroxytryptamine receptor … with A61M, Y336A

Experiments:
adenosine A2A receptor = assay: Antagonist binding to adenosine A2A NPxxY motif alanine mutants (Table 1); set-up: species or system human; conditions: for % of Wildtype binding / DPM1 / DPM2: antagonist binding; for DPM1: replicate 1; for DPM2: replicate 2; for Average - BG: average minus background; for Average: average of DPM1 and DPM2
Method: (§1) An alanine scan was carried out in a similar fashion on an adenosine A2A receptor along with the 5HT2C receptor in the presence of the antagonist Mesulergine. Both alanine scans were carried out in order to further stabilize the antagonist conformation. […] The motif in Adenosine A2A is NPFIY (SEQ ID NO: 364) and for the 5HT2C is NPLVY (SEQ ID NO: 363). Therefore mutations in this region of the receptor contain stabilising mutations specific to the agonist conformation and detrimentally effect antagonist binding.
Adenosine A2A receptor was solubilised from transiently transfected mammalian cells about 36 hours post transfection, in 50 mM Tris pH7.4/400 mM NaCl/0.5% DDM and protease inhibitor. Cell lysates were left at 4° C. on a rotator and then cleared by centrifugation at 13,200 rpm for 20 minutes at 4° C. Solubilised receptors were then purified on Ni-NTA beads and eluted with 50 mM histidine. The eluted receptor was used in radioligand binding assay. The Tm was determined by incubating 108 μl of the eluate with Zm241385 radioligand at a final concentration of 100 nM for one hour at 4° C. The six ligand incubations are then incubated at six different temperatures from 20° C. to 50° C., for thirty minutes. Receptor bound and free radioligand were separated using G25 Sephadex spin columns.

5HT2C receptor [1] = assay: Two point thermostability assay, SCH23390 agonist binding to 5HT2C alanine scan mutants; format: physicochemical, human
Method: An alanine scan has been carried out on the 5HT2C receptor in the presence of the agonist SCH23390 in order to stabilise the agonist conformation.
(§2) 5HT2C receptor was solubilised from transiently transfected mammalian cells about 40 hours post transfection, in 50 mM Hepes pH7.4/100 mM KCl/0.5% DDM/(0.1% CHS/0.6% CHAPS was added to cells for SCH23390 agonist assay) and protease inhibitor. Cell lysates were left at 4° C. on a rotator and then cleared by centrifugation at 13,200 rpm for 20 minutes at 4° C. Thermostability analysis was performed directly on the soluble lysate. The Tm was determined by incubating 108 μl of the lysate with [N^6-methyl-^3H]Mesulergine radioligand at a final concentration of 17 nM or 9 nM [^3H]SCH23390 for one hour at 4° C. The six ligand incubations are then incubated at six different temperatures from 25° C. to 55° C., for thirty minutes. Receptor bound and free radioligand were separated using G25 Sephadex spin columns.

5HT2C receptor [2] = assay: Thermostability of 5HT2C receptor bound to agonist SCH23390; format: physicochemical, human
Method: An alanine scan has been carried out on the 5HT2C receptor in the presence of the agonist SCH23390 in order to stabilise the agonist conformation. Similar to A2A, it appears that mutating L2.46 (L95 in 5HT2C) to alanine confers significant stability on this receptor increasing the Tm of the receptor by 5.4° C. (FIG. 7). It is notable that in addition to L95, mutating the nearby M93 (two residues away from L2.46) to alanine also confers stability to the agonist bound receptor, resulting in an increase of 2.9° C.
A2AR-(2-316) expression was carried out by using the pRG/III-hs-MBP E. coli expression vector and DH5α cells. Cells were grown at 37° C. in 2 L flasks containing 500 mL of 2×TY medium supplemented with Ampicillin (100 μg/mL) and glucose (0.2% w/v). At OD600≈0.7, IPTG and theophylline were added at final concentrations respectively of 0.5 mM and 100 μM, and the temperature was reduced to 20° C. After 22 to 24 hours, cells were harvested in aliquots of 14 mL, centrifuged for 30 min and stored at −20° C. Both 5HT2C and M4 receptors were transiently expressed in HEK293T cells using GeneJuice transfection reagent used according to the manufacturers guidelines.
5HT2C receptor was solubilised from transiently transfected mammalian cells in 50 mM Hepes pH7.4, 100 mM KCl, 0.5% DDM (0.1% CHS/0.6% CHAPS was added to cells for SCH23390 agonist assay). Tm analysis was performed directly on the soluble lysate. The Tm was determined by incubating 108 μl of the lysate with [N^6-methyl-^3H]Mesulergine radioligand at a final concentration of 17 nM or 9 nM [^3H]SCH23390 for one hour at 4° C. The six ligand incubations are then incubated at six different temperatures from 25° C. to 55° C., for thirty minutes. Receptor bound and free radioligand were separated using a 96-well plate gel filtration assay.
as §2

5HT2C receptor [3] = assay: Antagonist binding to 5HT2C NPxxY motif alanine mutants (Table 1); set-up: species or system human; Average / Average - BG: unit not given here; conditions: for % of Wildtype binding / DPM1 / DPM2: antagonist Mesulergine binding; for DPM1: replicate 1; for DPM2: replicate 2; for Average - BG: average minus background; for Average: average of DPM1 and DPM2
Method: as §1, §2

| Molecule | % of Wildtype binding (adenosine A2A receptor) [%] | DPM1 (adenosine A2A receptor) [DPM] | DPM2 (adenosine A2A receptor) [DPM] | Average - BG (adenosine A2A receptor) | Average (adenosine A2A receptor) | % of Wildtype binding (5HT2C receptor [3]) [%] | DPM1 (5HT2C receptor [3]) [DPM] | DPM2 (5HT2C receptor [3]) [DPM] | Average - BG (5HT2C receptor [3]) | Average (5HT2C receptor [3]) | also measured |
| --- | --- | --- | --- | --- | --- | --- | --- | --- | --- | --- | --- |
| B1 | 7.69 | 1488 | 1471 | 979.5 | 1479.5 |  |  |  |  |  |  |
| B2 | 2.78 | 888 | 820 | 354 | 854 |  |  |  |  |  |  |
| B3 | 14.74 | 2150 | 2602 | 1876 | 2376 |  |  |  |  |  |  |
| B4 | 0.13 | 519 | 514 | 16.5 | 516.5 |  |  |  |  |  |  |
| B5 |  |  |  |  |  |  |  |  |  |  | thermostability (agonist binding at the destabilising temperature compared to wild type) (5HT2C receptor [1]): increased agonist binding compared to the wild type receptor |
| B6 |  |  |  |  |  |  |  |  |  |  | increase of Tm (5HT2C receptor [2]; agonist SCH23390 bound, versus parent 5HT2C): 2.9 °C; Tm (5HT2C receptor [2]; bound to agonist SCH23390): 45.6 °C |
| B7 |  |  |  |  |  | 22.25 | 2512 | 2449 | 2049 | 2480.5 |  |
| B8 |  |  |  |  |  | 14.94 | 1855 | 1760 | 1376 | 1807.5 |  |
| B9 |  |  |  |  |  | 36.35 | 3988 | 3569 | 3347 | 3778.5 |  |
| B10 |  |  |  |  |  | 11.22 | 1328 | 1602 | 1033.5 | 1465 |  |
